From paper doi:10.1101/2023.04.03.535447

What was measured:
ACE2 receptor [1] = target: ACE2 receptor (UniProt Q9BYF1); experiment: ELISA; competitive ELISA of ACE2 binding; DCFHP 100% adsorbed to Alhydrogel (no phosphate), time zero against storage at 4 °C for 3-21 days (mean 10 days); read-out is the native antigen concentration against a reference, target 50 mcg/mL
ACE2 receptor [2] = target: ACE2 receptor (UniProt Q9BYF1); experiment: ELISA; competitive ELISA of ACE2 binding; Alhydrogel-adsorbed DCFHP incubated overnight at 4, 40 or 50 °C, compared with a reference sample adsorbed on the day of the assay

Sequence of UniProt Q9BYF1 (Q9BYF1 18-805): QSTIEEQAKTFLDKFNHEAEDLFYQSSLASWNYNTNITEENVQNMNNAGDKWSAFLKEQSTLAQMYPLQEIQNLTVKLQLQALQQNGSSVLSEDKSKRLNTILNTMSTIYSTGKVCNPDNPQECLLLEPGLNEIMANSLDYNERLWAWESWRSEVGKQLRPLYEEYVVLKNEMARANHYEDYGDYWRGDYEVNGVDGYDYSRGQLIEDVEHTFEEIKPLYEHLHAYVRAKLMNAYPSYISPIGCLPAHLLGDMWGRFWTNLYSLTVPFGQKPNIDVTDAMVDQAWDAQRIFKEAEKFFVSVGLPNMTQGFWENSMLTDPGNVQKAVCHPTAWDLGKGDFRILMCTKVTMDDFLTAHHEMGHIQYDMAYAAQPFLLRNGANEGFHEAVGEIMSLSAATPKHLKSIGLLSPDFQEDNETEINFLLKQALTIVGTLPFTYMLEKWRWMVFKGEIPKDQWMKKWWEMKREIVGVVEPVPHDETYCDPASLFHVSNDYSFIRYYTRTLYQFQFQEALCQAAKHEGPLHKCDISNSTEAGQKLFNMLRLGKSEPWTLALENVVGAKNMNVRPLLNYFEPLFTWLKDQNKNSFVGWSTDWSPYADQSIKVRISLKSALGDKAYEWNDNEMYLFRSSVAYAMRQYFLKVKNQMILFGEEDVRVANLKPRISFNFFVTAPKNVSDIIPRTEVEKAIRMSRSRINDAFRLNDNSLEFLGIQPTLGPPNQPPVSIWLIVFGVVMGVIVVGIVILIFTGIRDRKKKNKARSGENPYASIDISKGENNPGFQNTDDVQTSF

In the case of “Delta-C70-Ferritin-HexaPro SARS-CoV-2 spike ferritin nanoparticle produced in Expi293 cells”, the native antigen concentration by ACE2 competitive ELISA, freshly adsorbed (time zero) (ACE2 receptor [1]) is reported as 48 µg/mL, the native antigen concentration by ACE2 competitive ELISA, stored at 4°C for 3-21 days (ACE2 receptor [1]) is reported as 75 µg/mL and the loss of ACE2 binding after overnight incubation at 40°C (AH-adsorbed) (ACE2 receptor [2]) is reported as 60%. It also gave a loss of ACE2 binding after overnight incubation at 50°C (AH-adsorbed) (ACE2 receptor [2]) of 80%.
